Molecular target: C-terminally labeled STIM1(del302-448) (STIM1(del302-448)-AcGFP / STIM1(del302-448)-mApple) (human) (UniProt Q13586)
Experiment: cross-linking; chemical crosslinking with dithiobis(succinymidyl propionate); constructs separately expressed; unstimulated state (Supplemental Figure S2)

stoichiometry N: 2
Substance: C-terminally labeled STIM1(del302-448) (STIM1(del302-448)-AcGFP / STIM1(del302-448)-mApple) (from UniProt Q13586 23-685) (natural protein)

— publication PMC4883682
